Assay results published in patent publication CN113583114A (YANG SHENG TANG CO LTD; UNIV XIAMEN, dated 2021).

B1: 人源单克隆抗体6G9 (antibody, V domains shown)
VH: QVQLVQSGAEVKKLGASVKVSCKASGYSFTDYYIHWVRQAPGQGLEWMGWINPISGGTNYAQKFQGRVTMTRDTSITTVYMELSRLRSDDTAVYYCARDLPPYNWNGPLRSQRFDCWGQGTLVTVSS
VL: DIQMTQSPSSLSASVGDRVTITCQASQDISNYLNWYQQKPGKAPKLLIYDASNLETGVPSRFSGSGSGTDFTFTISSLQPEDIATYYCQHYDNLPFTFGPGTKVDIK
B2: 人源单克隆抗体5C6 (antibody, V domains shown)
VH: EVQLVESGGGVVQPGRSLRLSCAASGFTFRTYAMHWVRQAPGKGLEWVAVMWNDGSNKYYADSVKGRFTISRDNSKNTLYLEMNSLRAEDTAVYYCAREGVAAAGSSSDAFDIWGQGTMVTVSS
VL: DIQMTQSPSSLSASVGDRVTITCRASQSISNFLNWYQQKPGKAPKLLIYAASSLQSGVPSRFSGSGSGTDFTLTISSLQPEDFATYYCQQSYSTLYSFGQGTKLEIK
B3: 人源单克隆抗体3C11 (antibody, V domains shown)
VH: EVQLVESGGGLVQPGGSLRLSCAASGFTVSRNYMSWVRQAPGKGLEWVSVIYSGGSTYYADSVKGRFTISRDNSKNTLYLQMNSLRAEDTAVYYCARGLVASYRYGMDVWGQGTTVTVSS
VL: DIQMTQSPVSLSASIGDRVTITCQASQDITNYLNWYQQKPGKAPKLLIYDASNLETGVPSRFSGSGSGTDFTFTISSLQPEDIATYYCHQYDNLPVTFGGGTKVEIK

These binders were tested against SARS-CoV-2Sde18 (SARS-CoV-2 S蛋白, C末端截短18个氨基酸) on VSV pseudovirus SARS-CoV-2VSVpp (SARS-CoV-2, UniProt P0DTC2 14-1255) (assay: cell-based or functional assay).
In the case of B1, the 假病毒感染阻断率 is reported as 80 % (at 0.22 μg/mL) and the “半抑制浓度(IC50), 假病毒中和 (GFP阳性细胞数减少)” value is reported as 0.56 ng/mL. With B2 the 假病毒感染阻断率 was 80 % (at 0.22 μg/mL) and the “半抑制浓度(IC50), 假病毒中和 (GFP阳性细胞数减少)” value was 4.06 ng/mL. For B3, the 假病毒感染阻断率 was 80 % (at 0.22 μg/mL) and the “半抑制浓度(IC50), 假病毒中和 (GFP阳性细胞数减少)” value was 62.9 ng/mL.
